The source of these data is patent publication US20230303658A1 (published 2023).

For assay [1], the target named is T1, CD16V protein (extracellular portion of CD16A V158 with C-terminal FLAG sequence) (human, UniProt P08637 19-208).
T1 construct: Soluble protein from ExpiCHO-S cells, purified on anti-FLAG gel
In words: ELISA: EpCAM coated, anti-EpCAM antibody captured, FLAG-tagged CD16V protein titrated, anti-FLAG-HRP detection.
Protocol: (§1) After incubation at room temperature for one hour, the plate was washed with TBS-T. Next, 20 μL of horseradish peroxidase-labeled anti-FLAG (registered trademark) M2 antibody diluted with the diluent was added to each well as a detection antibody. After incubating at room temperature for one hour, the plate was washed with TBS-T. After adding TMB+Substrate-Chromogen and incubating, the reaction was stopped by adding 1M sulfuric acid, and the absorbance at 450 nm and reference wavelength were measured using Infinite 200 PRO.

Assay [2] addresses T2, CD16V_K131D_N38Q (human, UniProt P08637 19-208).
T2 construct: Soluble FLAG-tagged mutant
Briefly: ELISA: EpCAM coated, anti-EpCAM antibody captured, FLAG-tagged CD16V protein titrated from 10 µg/mL, anti-FLAG-HRP detection. A general note: An ELISA detects its analyte on a solid surface through an enzyme-linked reagent.
Protocol: as §1

The target in assay [3] is T3, CD16V_K128E_K131D (human, UniProt P08637 19-208).
T3 construct: Soluble FLAG-tagged mutant
T3 sequence (P08637 other isoform, or with tags, fused parts or gaps K128E K131D K128E K131D): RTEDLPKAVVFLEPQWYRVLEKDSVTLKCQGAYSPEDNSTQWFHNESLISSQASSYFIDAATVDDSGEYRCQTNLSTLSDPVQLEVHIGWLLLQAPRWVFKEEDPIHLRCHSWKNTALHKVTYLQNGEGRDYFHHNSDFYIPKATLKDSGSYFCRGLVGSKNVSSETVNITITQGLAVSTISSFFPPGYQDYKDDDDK
Described as above.
Protocol: as §1

Assay [4] has as its target T4, CD16V_K128E_K131E (human, UniProt P08637 19-208).
T4 construct: Soluble FLAG-tagged mutant
Described as above.
Protocol: as §1

For assay [5], the target named is T5, CD16V_K131D_N74Q (human, UniProt P08637 19-208).
T5 construct: Soluble FLAG-tagged mutant
T5 sequence (P08637 other isoform, or with tags, fused parts or gaps K131D N74Q K131D N74Q): as the sequence (P08637 other isoform, or with tags, fused parts or gaps K128E K131D K128E K131D) above, with N74Q, E128K counted along it
The assay is described as above.
Protocol: as §1

Assay [6] concerns the target T6, CD16V_K131D (human, UniProt P08637 19-208).
T6 construct: Soluble FLAG-tagged mutant; also called K149D (AAH17865.1 numbering)
The description is as above.
Protocol: as §1

The target of assay [7] is T2, CD16V_K131D_N38Q. In words: ELISA: EpCAM coated, anti-EpCAM antibody captured, FLAG-tagged CD16V protein titrated, anti-FLAG-HRP detection.
Protocol: as §1
Assay [8] deals with T3, CD16V_K128E_K131D. The description is as above.
Protocol: as §1
Assay [9] has as its target T4, CD16V_K128E_K131E. Described as above.
Protocol: as §1
The target in assay [10] is T5, CD16V_K131D_N74Q. The description is as above.
Protocol: as §1
The target of assay [11] is T6, CD16V_K131D. The assay is described as above.
Protocol: as §1
Assay [12] has as its target T1, CD16V protein (extracellular portion of …). Briefly: ELISA: EpCAM coated, anti-EpCAM antibody captured, FLAG-tagged CD16V protein titrated from 10 µg/mL, anti-FLAG-HRP detection.
Protocol: as §1

T1 sequence (P08637 other isoform, or with tags, fused parts or gaps): as the sequence (P08637 other isoform, or with tags, fused parts or gaps K128E K131D K128E K131D) above, with E128K, D131K counted along it
T2 sequence (P08637 other isoform, or with tags, fused parts or gaps K131D N38Q K131D N38Q): as the sequence (P08637 other isoform, or with tags, fused parts or gaps K128E K131D K128E K131D) above, with N38Q, E128K counted along it
T6 sequence (P08637 other isoform, or with tags, fused parts or gaps K131D K131D): as the sequence (P08637 other isoform, or with tags, fused parts or gaps K128E K131D K128E K131D) above, with E128K counted along it
T4 sequence (P08637 other isoform, or with tags, fused parts or gaps K128E K131E K128E K131E): as the sequence (P08637 other isoform, or with tags, fused parts or gaps K128E K131D K128E K131D) above, with D131E counted along it

B1: Fc_RK type anti-EpCAM antibody (antibody, human IgG1, kappa)
heavy: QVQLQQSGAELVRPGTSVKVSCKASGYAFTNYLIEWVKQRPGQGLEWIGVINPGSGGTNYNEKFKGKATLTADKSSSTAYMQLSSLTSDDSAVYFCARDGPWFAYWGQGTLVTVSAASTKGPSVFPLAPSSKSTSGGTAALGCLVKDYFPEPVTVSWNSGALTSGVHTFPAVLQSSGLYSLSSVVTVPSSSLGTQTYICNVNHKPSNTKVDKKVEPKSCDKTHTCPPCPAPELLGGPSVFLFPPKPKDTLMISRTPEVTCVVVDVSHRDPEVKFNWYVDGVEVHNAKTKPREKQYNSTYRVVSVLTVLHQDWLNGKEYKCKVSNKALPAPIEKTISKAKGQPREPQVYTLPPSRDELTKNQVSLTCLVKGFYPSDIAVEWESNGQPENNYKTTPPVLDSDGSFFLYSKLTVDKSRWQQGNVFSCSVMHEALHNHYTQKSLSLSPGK
light: NIVMTQSPKSMSMSVGERVTLTCKASENVVTYVSWYQQKPEQSPKLLIYGASNRYTGVPDRFTGSGSATDFTLTISSVQAEDLADYHCGQGYSYPYTFGGGTKLEIKRTVAAPSVFIFPPSDEQLKSGTASVVCLLNNFYPREAKVQWKVDNALQSGNSQESVTEQDSKDSTYSLSSTLTLSKADYEKHKVYACEVTHQGLSSPVTKSFNRGEC
For B1, the binding result in [1] is listed as “no binding (tested: CD16V protein up to 10 µg/mL)”; in assay [2], “binds”; in assay [3] it was “binds”; in assay [4] it was “binds”; in assay [5], “binds”; in assay [6], “binds”.

B2: Fc_RR type anti-EpCAM antibody (antibody, human IgG1, kappa)
heavy: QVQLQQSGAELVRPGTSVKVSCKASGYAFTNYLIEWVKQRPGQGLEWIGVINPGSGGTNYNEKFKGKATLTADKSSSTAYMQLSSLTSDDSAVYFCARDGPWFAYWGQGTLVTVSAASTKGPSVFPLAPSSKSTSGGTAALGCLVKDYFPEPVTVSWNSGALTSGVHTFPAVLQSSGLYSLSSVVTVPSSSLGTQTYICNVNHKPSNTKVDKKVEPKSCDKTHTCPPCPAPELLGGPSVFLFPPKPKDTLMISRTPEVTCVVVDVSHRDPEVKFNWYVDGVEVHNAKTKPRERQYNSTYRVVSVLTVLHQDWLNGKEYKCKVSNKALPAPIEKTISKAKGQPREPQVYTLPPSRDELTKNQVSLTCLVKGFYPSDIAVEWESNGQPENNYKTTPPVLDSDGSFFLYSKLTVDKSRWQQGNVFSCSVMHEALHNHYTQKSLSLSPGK
light: B1 light
As to B2, the binding result in assay [1] is “no binding (tested: CD16V protein up to 10 µg/mL)”; in [2], “binds”; in [3], “binds”; in [4], “binds”; in assay [5], “binds”; in assay [6], “binds”.

B3: Fc_wt type anti-EpCAM antibody (antibody, human IgG1, kappa)
heavy: not shown
light: B1 light
notes: also called edrecolomab variable regions on human Igγ1
Turning to B3, the binding result is recorded as “no binding (tested: CD16V protein up to 10 µg/mL)” in assay [7]; “no binding (tested: CD16V protein up to 10 µg/mL)” in [8]; “no binding (tested: CD16V protein up to 10 µg/mL)” in assay [9]; “no binding (tested: CD16V protein up to 10 µg/mL)” in [10]; “no binding (tested: CD16V protein up to 10 µg/mL)” in assay [11]; “binds” in assay [12].
